Laboratory results from publication PMC9813072 (Osteoporosis International, 2022).

Tests used:
[1] = assay type: in vivo, healthy men and postmenopausal women; details: single SC 20 μg; N = 105 per treatment
[2] = cited from earlier work
serum calcium = details: teriparatide 20 μg once a day; cited from earlier work

Row | Substance | Total adverse events, number of events [1] [e] | Total adverse events, subjects [1] | Half-life ([2]; after SC injection) | Time to peak serum concentration ([2]; after SC injections of 20, 40, and 80 μg) | Absolute bioavailability ([2]; following SC administration) [%] | Median increase of serum calcium at peak (serum calcium) [mg/dL]
1 | US-teriparatide: Forteo®, Lilly USA; US-approved teriparatide reference product | 3 | 3 (2.86%) n (%) |  |  |  | 
2 | Teriparatide |  |  | approximately 1 h | approximately 30 min | 95 | 0.4
3 | EU-teriparatide: Forsteo®, Eli Lilly, The Netherlands; EU-approved teriparatide reference product | 5 | 4 (3.81%) n (%) |  |  |  | 
4 | Teriparatide biosimilar: potential biosimilar of teriparatide developed by Intas Pharmaceutical Ltd., India; test product |  | 8 (7.62%) n (%) |  |  |  | 
